Laboratory results taken from patent US9696316B2, “Conformationally dynamic peptides” (SYSTEM OF SYSTEMS ANALYTICS, INC., priority 2009, dated 2017).
“Also recorded” adds a separate entry of the source.

Key:
Assay type in all cases: binding
Aβ42 oligomer [1] = target: T1, Aβ42 oligomer (Homo sapiens, UniProt P05067); assay: CD analysis of peptide probe with target protein; settings: 10 mM sodium phosphate pH 7.0, 3 hours
Text: The conformation of the peptide probe bound to the target protein can be assessed by CD analysis. […] The peptide alone is highly alpha helical (36%). Upon mixing of Peptide 38 with the target protein, the peptide undergoes a conformation shift that results in increased β-sheet conformation, and decreased α helix conformation. That is, the secondary structure of Peptide 38 is altered such that the proportion of a helix is halved (18%), while the proportion of β-sheet structure is enhanced from 20% to 31%. […] Circular dichroism (CD) analysis is used to determine the secondary structure of Peptide 22, synthetic Aβ42 oligomer, and a mixture thereof. Samples are incubated in 10 mM sodium phosphate (pH 7.0) for 3 hours at room temperature before measuring CD. For each sample, the relative ellipticity is evaluated from 190-260 nm. […] Each data set represents the average of three separate spectral scans.

Aβ42 oligomer [2] = target: T1, Aβ42 oligomer; assay: Aqueous Aβ oligomer assay, pyrene fluorescence
Text: The conformation of peptide probe bound to the target protein can also be detected by measuring pyrene fluorescence, on the peptide alone and in combination with the target protein. […] The excimer fluorescence associated with the β-sheet conformation has a different wavelength than the monomer fluorescence associated with the alpha-helix conformation, and the excimer:monomer fluorescence ratio is 9:1. […] The addition of Aβ42 oligomer target protein results in a dose-dependent shift of the excimer:monomer fluorescence ratio to 20:1 at the highest Aβ42 oligomer concentration (0.3 μM). This change in excimer:monomer fluorescence ratio reflects a corresponding conformational change in the peptide, that results in increased β-sheet conformation, and decreased α helix conformation.
An Aβ oligomer assay may be conducted in an aqueous solvent, such as water. […] Upon introduction of Aβ oligomer, the fluorescence profile shifts to primarily self-fluorescence (monomeric) (see FIG. 11), which is associated with reduced β-sheet structure, or increased alpha helix structure.
As discussed above, Peptide 22 (SEQ ID NO: 2) undergoes a conformational change upon interaction with Aβ oligomer. FIG. 11 illustrates the fluorescence spectra for Peptide 22 labeled at each terminus with pyrene and incubated in aqueous conditions for several hours at room temperature in 10 mM Hepes (pH 7.0). […] (solid line=Time 0; dashed line=3 hours; dotted line=18 hours).
(§1) Peptide 22 (100 nM) is incubated in water for 15 hours at room temperature with equimolar concentrations ([…]) of several potential Aβ substrates: Aβ42 oligomer (type 1); Aβ42 oligomer (type 2); Aβ1-42 monomer; Aβ1-40 monomer; Aβ1-42 fiber; Aβ1-40 fiber; bovine serum albumin (control substrate); and carbonic anhydrase (control substrate).
With reference to FIG. 13A, Peptide 22 (70 nM) is incubated with […] synthetic Aβ42 oligomer at 25 C, and fluorescence emission spectra is recorded after 3 hours incubation. […] (solid line—no Aβ42 oligomer; dashed/dot line—30 nN Aβ42 oligomer; large dashed line—100 nN Aβ42 oligomer; small dashed line—300 nN Aβ42 oligomer)

[3] = system: fibrillar amyloid target protein; assay: Signal gain on conformational change in the presence of fibrillar amyloid
Experimental: Peptide Probe 22 (SEQ ID NO:2, 2 μM) labeled at each terminus with pyrene is incubated in 0 to 80% TFE in tris buffer (10 mM Tris, pH 7.0) for 30 min. The reaction is measured by TECAN fluorimeter, and the excimer:monomer fluorescence ratio is recorded. […] When tested for the ability to undergo conformational change in the presence of a fibrillar amyloid target protein, Peptide 22 performs 2.6 times greater than the reference peptide (SEQ ID NO:1).

carbonic anhydrase = assay: Specificity assay, pyrene fluorescence (control substrate); settings: 100 nM peptide, water, 15 hours, 0-300 nN substrate
Experimental: as §1

bovine serum albumin = bovine serum albumin (Bos taurus, UniProt P02769); assay: as above; settings: 100 nM peptide, water, 15 hours, 0-300 nN substrate
Chain of bovine serum albumin (P02769 25-607): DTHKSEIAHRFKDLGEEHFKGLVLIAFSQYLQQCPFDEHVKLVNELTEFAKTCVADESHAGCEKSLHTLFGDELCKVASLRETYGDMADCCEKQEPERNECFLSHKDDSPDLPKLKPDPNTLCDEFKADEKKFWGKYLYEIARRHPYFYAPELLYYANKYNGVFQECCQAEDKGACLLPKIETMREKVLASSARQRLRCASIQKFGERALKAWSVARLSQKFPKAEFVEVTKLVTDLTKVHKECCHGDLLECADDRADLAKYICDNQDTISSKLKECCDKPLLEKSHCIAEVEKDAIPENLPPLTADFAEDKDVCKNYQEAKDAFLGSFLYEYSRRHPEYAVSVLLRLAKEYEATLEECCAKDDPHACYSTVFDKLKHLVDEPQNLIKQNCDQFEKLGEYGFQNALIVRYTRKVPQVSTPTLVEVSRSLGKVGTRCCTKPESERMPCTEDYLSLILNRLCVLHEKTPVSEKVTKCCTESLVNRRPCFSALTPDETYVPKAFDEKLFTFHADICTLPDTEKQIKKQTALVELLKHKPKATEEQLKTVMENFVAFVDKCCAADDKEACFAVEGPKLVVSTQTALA
Experimental: as §1

[4] = target: biotinylated Aβ42 oligomers (Homo sapiens, UniProt P05067); assay: In vitro affinity chromatography-based interaction assay (streptavidin beads); settings: 4 μM probe
Chain of biotinylated Aβ42 oligomers (P05067 672-713 limits assumed): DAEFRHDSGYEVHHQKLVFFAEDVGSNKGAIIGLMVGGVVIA
Experimental: In this assay, soluble peptide probes are combined with, for example, soluble target protein oligomers in an in vitro affinity chromatography-based interaction assay. For this example, target protein is labeled with an affinity molecule, such as biotin, and incubated with a labeled peptide probe. After incubation, the mixture is incubated with the capture moiety, such as streptavidin, on a support, for example a column or beads, such that the target protein is captured. After washing of unbound material, the support can be examined for detection of the labeled peptide probe, which would indicate the presence of bound target protein-peptide probe complexes on the support. Alternatively, the bound material may be eluted and then examined for detection of the labeled peptide probe. Again, detection of the labeled peptide probe would indicate the presence of target protein-peptide probe complexes in the eluant. FIGS. 5A and 15A illustrate an affinity chromatography assay using biotin-labeled target protein and streptavidin-coated beads. This type of assay is useful, for example, for assessing the efficacy of a given peptide probe. […] The beads are washed with PBS to remove unbound material and the captured material is analyzed by SDS-PAGE. […] […]

Aβ1-40 monomer = target: T2, Aβ1-40 monomer (Homo sapiens, UniProt P05067); assay: Specificity assay, pyrene fluorescence; settings: 100 nM peptide, water, 15 hours, 0-300 nN substrate
T2 construct: Aβ1-42 monomer; Aβ1-40 monomer; Aβ1-42 fiber; Aβ1-40 fiber
T2 sequence (P05067 672-711 limits assumed): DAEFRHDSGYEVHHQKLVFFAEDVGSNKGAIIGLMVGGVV
Experimental: as §1

Aβ1-42 fiber = target: T3, Aβ1-42 fiber (Homo sapiens, UniProt P05067); assay: Specificity assay, pyrene fluorescence; settings: 100 nM peptide, water, 15 hours, 0-300 nN substrate
T3 construct: Aβ1-42 monomer; Aβ1-40 monomer; Aβ1-42 fiber; Aβ1-40 fiber
T3 sequence (P05067 672-713 limits assumed): as the sequence (P05067 672-713 limits assumed) above
Experimental: as §1

Aβ1-42 monomer = target: T4, Aβ1-42 monomer (Homo sapiens, UniProt P05067); assay: Specificity assay, pyrene fluorescence; settings: 100 nM peptide, water, 15 hours, 0-300 nN substrate
T4 construct: Aβ1-42 monomer; Aβ1-40 monomer; Aβ1-42 fiber; Aβ1-40 fiber
T4 sequence (P05067 672-713 limits assumed): as above
Experimental: as §1

Aβ1-40 fiber = target: T5, Aβ1-40 fiber (Homo sapiens, UniProt P05067); assay: Specificity assay, pyrene fluorescence; settings: 100 nM peptide, water, 15 hours, 0-300 nN substrate
T5 construct: Aβ1-42 monomer; Aβ1-40 monomer; Aβ1-42 fiber; Aβ1-40 fiber
T5 sequence (P05067 672-711 limits assumed): as the sequence (P05067 672-711 limits assumed) above
Experimental: as §1

T1 sequence (P05067 672-713 limits assumed): as the sequence (P05067 672-713 limits assumed) above

Which results are given for “KLVFFAEDVGSNKHAIIELMK (KLVFFAEDVGSNKHAIIELMK) [Peptide 22, Salt bridge at G29H and G33E]”?
β sheet secondary structure (CD) (Aβ42 oligomer [1]; 4 μM peptide alone, room temperature): 36%; β sheet secondary structure (CD) (Aβ42 oligomer [1]; 4 μM peptide incubated with 33 nM synthetic Aβ42 oligomer): 43%; pyrene monomer (self) fluorescence (370-420 nm) versus Aβ42 oligomer concentration (Aβ42 oligomer [2]; 70 nM peptide, 0, 30, 100, 300 nM synthetic Aβ42 oligomer, 25 C, 3 hours (FIG. 13A)): increases with Aβ42 oligomer concentration in a dose-dependent manner; fluorescence over time in the absence of oligomer (Aβ42 oligomer [2]; 10 mM Hepes pH 7.0, room temperature, 0, 3, 18 hours (FIG. 11)): stable over time; reactivity with Aβ42 oligomers (transition from pyrene excimer fluorescence to pyrene self-fluorescence) (Aβ42 oligomer [2]; aqueous assay): react with Aβ42 oligomers; preferential binding by state of self-aggregation of Aβ protein (Aβ42 oligomer [2]; versus monomers, fibers and control proteins): preferentially binds to Aβ protein in the form of soluble Aβ oligomers; maximal signal gain in the presence of fibrillar amyloid target protein relative to the reference peptide (SEQ ID NO:1) [3]: about 2.6 times; fluorescence response to Anhydrase control (carbonic anhydrase): no change in fluorescence; fluorescence response to BSA control (bovine serum albumin): no change in fluorescence; capture of labeled peptide probe with biotinylated Aβ42 oligomer on streptavidin beads (SDS-PAGE) [4]: directly binds to biotinylated Aβ42 oligomer; fluorescence response to Aβ40 monomer (Aβ1-40 monomer): no change in fluorescence; fluorescence response to Aβ42 fibers (Aβ1-42 fiber): some dose-dependent increase in monomer fluorescence; fluorescence response to Aβ42 monomer (Aβ1-42 monomer): no change in fluorescence; also recorded: slight fluorescence response; fluorescence response to Aβ40 fibers (Aβ1-40 fiber): no change in fluorescence; also recorded: slight fluorescence response
